Experimental data taken from patent publication US20030147883A1.

What was measured:
[1] = molecular target: Epitope tagged high affinity fMLP receptor FPR (on ETFR cells) (UniProt P21462); experiment: cell-based or functional assay
[2] = molecular target: FPR-like receptor 1 (FPRL1) (UniProt P25090); experiment: cell-based or functional assay
Chain of FPR-like receptor 1 (FPRL1) (P25090 whole entry): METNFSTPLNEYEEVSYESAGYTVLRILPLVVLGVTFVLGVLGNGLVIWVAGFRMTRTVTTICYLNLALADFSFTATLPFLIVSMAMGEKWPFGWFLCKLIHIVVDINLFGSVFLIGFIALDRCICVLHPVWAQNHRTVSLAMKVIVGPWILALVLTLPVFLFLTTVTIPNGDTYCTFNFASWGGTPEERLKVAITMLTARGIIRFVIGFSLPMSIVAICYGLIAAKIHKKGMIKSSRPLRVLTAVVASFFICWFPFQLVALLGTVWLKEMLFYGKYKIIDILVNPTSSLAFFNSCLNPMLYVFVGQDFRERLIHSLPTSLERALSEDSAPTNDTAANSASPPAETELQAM

Chain of Epitope tagged high affinity fMLP receptor FPR (on ETFR cells) (P21462 whole entry): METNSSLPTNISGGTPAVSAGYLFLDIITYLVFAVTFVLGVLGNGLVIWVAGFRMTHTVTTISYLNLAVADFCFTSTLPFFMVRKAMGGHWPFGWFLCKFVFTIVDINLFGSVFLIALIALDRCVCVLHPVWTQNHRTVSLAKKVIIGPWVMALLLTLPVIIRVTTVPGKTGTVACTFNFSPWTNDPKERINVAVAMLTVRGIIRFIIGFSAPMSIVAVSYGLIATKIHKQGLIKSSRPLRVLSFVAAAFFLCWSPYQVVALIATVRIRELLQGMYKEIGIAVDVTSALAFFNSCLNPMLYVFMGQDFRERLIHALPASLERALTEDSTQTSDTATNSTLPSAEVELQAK

N-formyl-methionyl-leucyl-phenylalanine (fMLP) (peptide)
Ca^2+ mobilization in ETFR cells, minimal effective dose [1]: 100 pM | cross-desensitization of Ca^2+ flux in FPRL1/293 cells [2]: 100000 fold excess
